# In patent publication US8785600B2, “Anti-GCC antibody molecules and related compositions and methods” (Millennium Pharmaceuticals, Inc., priority 2009, dated 2014):
# B1: 8F1: Mouse anti-GCC hybridoma mAb, IgG1,k; VH SEQ ID NO:10, VL SEQ ID NO:12 (antibody, V domains shown)
# VH: QVQLQQPGAELVKPGASVQMSCKASGYIFTGYWMYWVKQRPGQGLEWIGRIHPSDSNTNYNQKFKGKATLTVDKSSSTAYMQLSSLTSEDSAVYYCTHALAYWGQGTLVTVS
# VL: DVVLTQTPLTLSITIGQPASISCKSSQSLLYSNGKTYLSWLLQRPGQSPKRLIYLVSQLDSGVPDRFTGSGSGTDFTLKISRVEAEDLGVYYCVQGTHLFTFGSGTKLEIK
# B2: 3G1: Mouse anti-GCC hybridoma mAb, IgG1,k; VH SEQ ID NO:2, VL SEQ ID NO:4 (antibody, V domains shown)
# VH: QVQLKESGPGLVAPSQSLSITCTVSGFSLSRNAISWVRQPPGKGLEWLGVIWTGGGTNYNSALKSRLSIRKENSKSQVFLKMNSLQTEDTARYFCARSGYDGFDYWGQGTLVTVSA
# VL: QIVLTQSPAIMSASPGEKVTMTCSASSSVNYMHWYQQKSGTSPKRWIYDTSKLASGVPARFSGSGSGTSYSLTITSMEAEDAATYYCQQWSGNPYTFGGGTKLEIK
# B3: Abx-198: Human anti-GCC SLAM mAb, IgG1,k; VH SEQ ID NO:42, VL SEQ ID NO:44 (antibody, V domains shown)
# VH: EVQLLESGGGLVQPGGSLRLSCAASGFTFSSYAMSWVRQAPGKGLDWVSDISGSGGSTYYADSVKGRFTISRDNSKNTLYLQMHSLSAEDTAIYYCAKRRWQGYFDLWGRGTLVTVSS
# VL: EIVLTQSPGTLSLSPGERATLSCRARQRVDSRYLAWYQQKPGQAPRLLIYGASSRATGIPDRFSGSGSGTDFTLTISRLEPEDFAVYYCQQYGSSPLTFGGGTKVEIK
# Test system: GCC 20-mer peptides (aa 1-440)
# Experiment: Epitope mapping by peptide array
# Format: binding, human
# Conditions: 20-mer peptides with 15 aa overlap, GCC aa 1-440
# From the text: Multiple strategies were initiated to identify epitopes. Peptide array. 20-mer peptides, with 15 aa overlap were generated, covering the extracellular domain (ECD) into the transmembrane domain of GCC (aa 1-440). Peptides were synthesized and provided as arrays, immobilized on glass slides. Arrays were hybridized with each of the anti-GCC antibodies to determine if linear peptides were sufficient for binding. […] The sequence, […] (SEQ ID NO:225) is spanned by these peptides. A region of overlap among the peptides is […] (SEQ ID NO:314). […] The sequence, […] (SEQ ID NO:226), and the sequence […] (SEQ ID NO:315) overlaps the two peptides.
row,Molecule,Peptides bound in peptide array
1,B1,"peptides 55, 56 and 57"
2,B2,"peptides 55, 56 and 57"
3,B3,peptides 55 and 56
